Measurements reported in US20060019320A1, “Wnt mediated erbb signalling, compositions and uses related thereto” (priority 2002, published 2006).

How the values were obtained:
ErbB1 = biological target: T1, ErbB1 (Mus musculus, UniProt Q01279); assay: ErbB1 immunoprecipitation and phosphotyrosine immunoblot in HC11 cells; type: cell-based; conditions: HC11 cells, 100 ng/ml EGF for 10 minutes
T1 construct: ErbB1 was immunoprecipitated from 500 micrograms WCL and immunoblotted with a phosphotyrosine specific antibody; endogenous in cells; host or cells: HC11 mammary cells (C-HC11, Wnt1-HC11, Wnt5a-HC11)
Method: ErbB1 is transactivated by many classes of membrane proteins (Carpenter, 1999; Gschwind et al., 2001). However, Wnt/VFz-mediated activation of ErbB1 has not been reported previously. Since ErbB1 tyrosine phosphorylation is an essential step in ErbB1 activation, we examined whether Wnt can activate ErbB1, by immunoprecipitating the receptor form Wnt/HC11 cells and performing a Westem analysis with phosphotyrosine specific antiserum. For these experiments HC11 cells were grown over night in medium without EGF. As a control for ErbB1 activation, C-HC 11 and Wnt-HC11 cells were treated for 10 minutes with 100 ng/ml EGF. An ErbB1 selective kinase inhibitor PKI166 (Traxler et al., 2001) was also used in some experiments. For this, the cells were pretreated 1 hr with 5 microM PKI 166, or left untreated, before preparing WCLs, essentially as described in Example 1.
ErbB1 was immunoprecipitated from 500 micrograms WCL and immunoblotted with a phosphotyrosine specific antibody (anti-phosphotyrosine AG10, Upstate Biotechnology) essentially as described previously (Lane et al., 2000). Membranes were stripped by placing them in 2% SDS, 62.5 mM Tris pH 6.8, 100 mM beta-mercaptoethanol at 60° C. for 30 min. Stripped membranes were reprobed for ErbB1 using a commercially available antibody (antibody 1005,Santa Cruz Biotechnology). […]

ERK1/2 = assay: phospho-ERK1/2 immunoblot (MAPK activity) in HC11 cells; type: cell-based, mouse
Description: The MAPK and PI3K pathways are major signaling cascades downstream of activated ErbB receptors (Olayioye et al., 2000). Antisera specific for the active, phosphorylated forms of ERK1/2 and PKB, the major kinases on the respective pathways, were used to probe for their activity. 50 micrograms of WCL were immunoblotted essentially as described above with the exception that a phospho-ERK1/2 antibody (commercially available, New England Biolabs) or a phosphoPKB antibody was used. Membranes were stripped and reprobed for ERK1/2 (anti-p44/42 ERK, New England Biolabs).
Briefly, conditioned media (CM) from Wnt-HC11 cells prepared as described in Example 1 was tested for its effect on ErbB1 and MAPK activity, essentially as described above. Treatment of C-HC11 cells for 10 min with Wnt1- and Wnt5a-CM stimulated phospho-ERK1/2 levels 5-6-fold, whereas CM from C-HC11 cells had no effect.
To rule out the potential involvement of ErbB1 ligands in mediating the effects of Wnt-containing CM, we used secreted Frizzled-related protein-1 (sFRP-1), which binds Wnt preventing it from binding Fz (Uren et al., 2000). […]
The metalloproteinase inhibitors were next tested in the presence of Wnt-containing CM. […] Phospho-ERK1/2 levels were determined as above. […]

cyclin D1 = assay: Cyclin D1 immunoblot in HC11 cells; type: cell-based, mouse; conditions: control (C-HC11) cells treated 6 hr
Method: Briefly, WCL was prepared from HC11, Wnt1- and Wnt5a-expressing HC11 cells and 50 μg immunoblotted essentially as described above using commercially available antibodies against cyclin D1 (NovaCastra) or cyclin D2 (SantaCruz). Both Wnt1- and Wnt5a-HC11 cells express higher levels of cyclin D1, in comparison to HC11 cells. In addition, Wnt1-HC11 cells but not C- or Wnt5a-HC11 cells express cyclin D2.
C-HC11 cells were also treated 6 hrs with CM from Wnt-HC11 cells. WCL were prepared and 50 μg was immunoblotted for Cyclin D1 or Cyclin D2. Similar to the results with the Wnt-HC11 cell lines, both Wnts (CM) stimulated Cyclin D1 expression, while only Wnt1 enhanced cyclin D2 levels.
To assess the contribution of Wnt-transactivated ErbB1 on cyclin D1 and D2 expression, C- and Wnt-HC11 cells were treated 6 hr with PKI166 or CGS27023A or EGF. […] In contrast, the ErbB1 inhibitor had no effect on cyclin D2 levels. […] Thus, cyclin D1 and cyclin D2 are differentially controlled. Both Wnt1 and Wnt5a transactivate ErbB1, which results in increased expression of cyclin D1; in contrast cyclinD2 is only elevated in Wnt1 expressing cells and this is independent of ErbB1 activity.

| Molecule | ErbB1 phosphorylation (ErbB1) | ERK1/2 phosphorylation (ERK1/2; C-HC11 cells, EGF 10 minutes in the presence of sFRP1) | cyclin D1 expression (cyclin D1) | Wnt1 and Wnt5a CM-induced increase of phospho-ERK1/2 levels (ERK1/2; C-HC11, CM from sFRP1-producing 293 cells premixed 1:1 with Wnt-containing CM, 10 min) |
| --- | --- | --- | --- | --- |
| EGF: an ErbB1 activator, used as control for ErbB1 activation (protein, UniProt P01133 23-1207, looked up, Pro-epidermal growth factor) Pro-epidermal growth factor: PQHWSCPEGTLAGNGNSTCVGPAPFLIFSHGNSIFRIDTEGTNYEQLVVDAGVSVIMDFHYNEKRIYWVDLERQLLQRVFLNGSRQERVCNIEKNVSGMAINWINEEVIWSNQQEGIITVTDMKGNNSHILLSALKYPANVAVDPVERFIFWSSEVAGSLYRADLDGVGVKALLETSEKITAVSLDVLDKRLFWIQYNREGSNSLICSCDYDGGSVHISKHPTQHNLFAMSLFGDRIFYSTWKMKTIWIANKHTGKDMVRINLHSSFVPLGELKVVHPLAQPKAEDDTWEPEQKLCKLRKGNCSSTVCGQDLQSHLCMCAEGYALSRDRKYCEDVNECAFWNHGCTLGCKNTPGSYYCTCPVGFVLLPDGKRCHQLVSCPRNVSECSHDCVLTSEGPLCFCPEGSVLERDGKTCSGCSSPDNGGCSQLCVPLSPVSWECDCFPGYDLQLDEKSCAASGPQPFLLFANSQDIRHMHFDGTDYGTLLSQQMGMVYALDHDPVENKIYFAHTALKWIERANMDGSQRERLIEEGVDVPEGLAVDWIGRRFYWTDRGKSLIGRSDLNGKRSKIITKENISQPRGIAVHPMAKRLFWTDTGINPRIESSSLQGLGRLVIASSDLIWPSGITIDFLTDKLYWCDAKQSVIEMANLDGSKRRRLTQNDVGHPFAVAVFEDYVWFSDWAMPSVMRVNKRTGKDRVRLQGSMLKPSSLVVVHPLAKPGADPCLYQNGGCEHICKKRLGTAWCSCREGFMKASDGKTCLALDGHQLLAGGEVDLKNQVTPLDILSKTRVSEDNITESQHMLVAEIMVSDQDDCAPVGCSMYARCISEGEDATCQCLKGFAGDGKLCSDIDECEMGVPVCPPASSKCINTEGGYVCRCSEGYQGDGIHCLDIDECQLGEHSCGENASCTNTEGGYTCMCAGRLSEPGLICPDSTPPPHLREDDHHYSVRNSDSECPLSHDGYCLHDGVCMYIEALDKYACNCVVGYIGERCQYRDLKWWELRHAGHGQQQKVIVVAVCVVVLVMLLLLSLWGAHYYRTQKLLSKNPKNPYEESSRDVRSRRPADTEDGMSSCPQPWFVVIKEHQDLKNGGQPVAGEDGQAADGSMQPTSWRQEPQLCGMGTEQGCWIPVSSDKGSCPQVMERSFHMPSYGTQTLEGGVEKPHSLLSANPLWQQRALDPPHQMELTQ | strong increase | able to induce | stimulate | – |
| sFRP1: secreted Frizzled-related protein-1, binds Wnt preventing it from binding Fz; used as CM from sFRP1-producing HEK293 cells (protein, UniProt Q8N474 32-314, looked up) Secreted frizzled-related …: SEYDYVSFQSDIGPYQSGRFYTKPPQCVDIPADLRLCHNVGYKKMVLPNLLEHETMAEVKQQASSWVPLLNKNCHAGTQVFLCSLFAPVCLDRPIYPCRWLCEAVRDSCEPVMQFFGFYWPEMLKCDKFPEGDVCIAMTPPNATEASKPQGTTVCPPCDNELKSEAIIEHLCASEFALRMKIKEVKKENGDKKIVPKKKKPLKLGPIKKKDLKKLVLYLKNGADCPCHQLDNLSHHFLIMGRKVKSQYLLTAIHKWDKKNKEFKNFMKKMKNHECPTFQSVFK | – | – | – | prevented |
